One protein from PMC3897551 (Current biology : CB, 2013) can be followed below.

The data set concerns the molecule itself. The experiment in a line: two-step photobleaching of single molecules.

B1: GFP-tagged MCAK containing aa 187-730 (GMΔNT) (domain or fragment, UniProt Q91636 187-730, looked up)
chain: GRNNQGRRKSNIVKEMEKMKNKREEQRAQNYERRMKRAQDYDTSVPNWEFGKMIKEFRATMDCHRISMADPAEEHRICVCVRKRPLNKQELSKKEIDIISVPSKNIVLVHEPKLKVDLTKYLENQAFRFDFSFDETATNEVVYRFTARPLVQSIFEGGKATCFAYGQTGSGKTHTMGGDFSGKSQNVSKGVYAFASRDVFLLLDQPRYKHLDLDVFVTFFEIYNGKVFDLLNKKTKLRVLEDAKQEVQVVGLLEKQVISADDVFKMIEIGSACRTSGQTFANTSSSRSHACLQIILRRGSKLHGKFSLVDLAGNERGVDTASADRITRMEGAEINRSLLALKECIRALGQNKSHTPFRESKLTQILRDSFIGENSRTCMIAMLSPGFNSCEYTLNTLRYADRVKELSPQNAETNDDNLQMEDSGGSHASIEGLQLQDDFLLKDEELSTHNSFQDALNRVGELEDKAVDELRELVQKEPEWTNLLQMTEQPDYDLENFVMQAEYLIQERSKVLIALGDSINSLRLALQVEEQASKQISKKKRSNK
For orientation: stoichiometry N means the number of molecules, sites or subunits per partner or assembly. B1: the “stoichiometry N” value was found to be 2.
